Results on one molecule are retold here after patent US20230348614A1 (VISTERRA, published 2023).

For one test, the target named is T1, G160A (Homo sapiens, UniProt P18827).
T1 construct: clone of the alanine scanning library on HEK-293T cells; m17 with one substitution; also called CD138 G160A
T1 sequence (CD138 (SDC1), full length, point mutant, looked up): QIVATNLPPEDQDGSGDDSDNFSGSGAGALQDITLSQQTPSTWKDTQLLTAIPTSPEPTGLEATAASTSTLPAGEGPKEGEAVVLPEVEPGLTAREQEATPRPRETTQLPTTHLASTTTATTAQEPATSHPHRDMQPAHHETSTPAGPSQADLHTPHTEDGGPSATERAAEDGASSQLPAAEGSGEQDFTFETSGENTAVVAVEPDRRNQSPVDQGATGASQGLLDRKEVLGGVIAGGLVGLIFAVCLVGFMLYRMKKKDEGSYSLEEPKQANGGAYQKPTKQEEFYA
Briefly: alanine scan: flow cytometry on HEK-293T cells expressing the mutant clone, 4320 Fab 0.50 ug/mL, normalised to WT CD138; Range %WT Binding 24; Normalized 4320 vs. BB4 60.2. The protocol: (§1) Serial dilutions of each MAb were tested for immunoreactivity against cells expressing target protein (WT) or vector alone. Validation of target expression and optimization of detection and binding of anti-CD138 antibodies both by flow cytometry was completed in replicate (N=4). The optimal screening concentration for each MAb was determined based on the raw signal values and signal-to-background calculations specifically optimized for each test article. Optimized parameters included the use of 10% goat serum as blocking reagent. Primary antibody staining was for 60 minutes at 25° C. Wash buffer include phosphate buffered saline (divalent metal ion free), pH 7.4. […] Secondary antibodies were diluted 1:400 and incubated for 30 minutes at 25° C.
(§2) Library screens of very-high-affinity mAbs can fail to yield critical residues for antibody binding due to deficiencies of such an assay to detect and differentiate critical vs. less critical binding based on affinity and quantification of cell binding. One common approach in the literature is the use of monovalent antibody derived fragments such as Fab usually weakens binding sufficiently to allow identification of critical residues for binding. […] Binding of each test Ab to each mutant clone in the alanine scanning library was determined, in duplicate, and likewise evaluated by flow cytometry.

In the next test the target is T2, P112A (Homo sapiens, UniProt P18827).
T2 construct: clone of the alanine scanning library on HEK-293T cells; m17 with one substitution; also called CD138 P112A
T2 sequence (CD138 (SDC1), full length, point mutant, looked up): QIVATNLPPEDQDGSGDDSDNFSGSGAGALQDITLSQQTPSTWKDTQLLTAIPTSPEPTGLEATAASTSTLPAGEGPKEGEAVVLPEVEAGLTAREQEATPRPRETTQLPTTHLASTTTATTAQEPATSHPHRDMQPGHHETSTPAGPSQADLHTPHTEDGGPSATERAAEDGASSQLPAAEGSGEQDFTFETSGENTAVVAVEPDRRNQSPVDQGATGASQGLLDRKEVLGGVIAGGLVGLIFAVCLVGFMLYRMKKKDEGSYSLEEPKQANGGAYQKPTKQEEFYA
Description: alanine scan: flow cytometry on HEK-293T cells expressing the mutant clone, 4320 Fab 0.50 ug/mL, normalised to WT CD138; Range %WT Binding 9; Normalized 4320 vs. BB4 21.6. As for the experimental part:
as §1, §2

B1: Fab fragment of mAb 4320 (Fab, V domains shown)
VH: QVQLVQSGAEVKKPGASVKVSCKASGYSFSSYYMHWVRQAPGQGLEWMGTIHPSDSTTNYNQKFQGRVTMTVDTSTRTAYMELSSLRSEDTAVYYCANFVYWGQGTTVTVSS
VL: DIVMTQTPLSLSVTPGQPASISCKSSKSLLYKDGKTYLNWFLQKPGQSPQLLIYVVSTRASGVPDRFSGSGSGTDFTLKISRVEAEDVGVYYCQQLVEYPYTFGQGTKLEIKR
modifications: N-terminal Q1 observed as pyroglutamic acid (PCA) in the 138-2-5 complex
notes: In the crystal structures heavy chain residues 1-213 were traced; also called Fab4320
Turning to B1, the “Mean %WT Binding” value with G160A was 59.7 %WT; with P112A, 22.6 %WT.
